Reference: article PMC8874411, “Biochemical and Structural Insights into the Winged Helix Domain of P150, the Largest Subunit of the Chromatin Assembly Factor 1”

What was measured:
Conditions in all cases: protein: recombinant; tags: C-terminal His6 (pETM13); blunt
P150 721-860 (WHD) [1] = biological target: T1, P150 721-860 (WHD) (Homo sapiens, UniProt Q13111 721-860); test: EMSA; 1 uM DNA, Sybr Gold; fit with Hill slope; EMSA: 20 mM Tris-HCl, 100 mM NaCl, 1 mM DTT, pH 7.5, 45 min on ice; 6% PAGE in 0.5X TBE on ice
T1 sequence (Q13111 721-860): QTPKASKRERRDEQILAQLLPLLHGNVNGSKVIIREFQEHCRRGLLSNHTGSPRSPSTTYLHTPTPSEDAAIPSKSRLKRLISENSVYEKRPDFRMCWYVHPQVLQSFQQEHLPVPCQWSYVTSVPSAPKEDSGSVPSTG

P150 575-860 (ED + WHD) = P150 575-860 (ED + WHD) (Homo sapiens, UniProt Q13111 575-860); test: EMSA; 2 uM DNA, 0-25 molar ratio; no complex detected; EMSA: 20 mM Tris-HCl, 100 mM NaCl, 1 mM DTT, pH 7.5, 45 min on ice; 6% PAGE in 0.5X TBE on ice
Chain of P150 575-860 (ED + WHD) (Q13111 575-860): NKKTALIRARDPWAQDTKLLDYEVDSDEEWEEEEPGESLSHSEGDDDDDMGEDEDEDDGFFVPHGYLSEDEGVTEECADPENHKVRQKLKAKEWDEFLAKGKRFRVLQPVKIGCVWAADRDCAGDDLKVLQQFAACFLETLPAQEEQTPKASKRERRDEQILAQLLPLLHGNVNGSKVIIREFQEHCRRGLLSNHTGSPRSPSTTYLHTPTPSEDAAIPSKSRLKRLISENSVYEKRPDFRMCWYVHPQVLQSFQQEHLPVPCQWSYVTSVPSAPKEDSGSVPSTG

P150 721-860 (WHD) [2] = biological target: T1, P150 721-860 (WHD); test: EMSA; about 21 uM DNA; EMSA: 20 mM Tris-HCl, 100 mM NaCl, 1 mM DTT, pH 7.5, 45 min on ice; 6% PAGE in 0.5X TBE on ice
P150 721-860 (WHD) [3] = biological target: T1, P150 721-860 (WHD); test: EMSA; 21 uM DNA, 0-15 molar ratio, EtBr; EMSA: 20 mM Tris-HCl, 100 mM NaCl, 1 mM DTT, pH 7.5, 45 min on ice; 6% PAGE in 0.5X TBE on ice

B1: 58 bp dsDNA (dsDNA)
DNA 1: ATACATTTTATGACTGGAAACTTTTTTGTACAACACTCCAATAAACATTTTGATTTTA
DNA 2: TAAAATCAAAATGTTTATTGGAGTGTTGTACAAAAAAGTTTCCAGTCATAAAATGTAT
P150 721-860 (WHD) [1]
  Kd: 10.4 ± 0.5 µM
P150 575-860 (ED + WHD)
  binding result: no binding

B2: 16 bp GC rich dsDNA (dsDNA)
DNA 1: ATCGCCCGCGCACGCA
DNA 2: TGCGTGCGCGGGCGAT
P150 721-860 (WHD) [2]
  binding result: binds

B3: 16 bp AT rich dsDNA (dsDNA)
DNA 1: ATAATCGATATTCGTT
DNA 2: AACGAATATCGATTAT
P150 721-860 (WHD) [2]
  binding result: binds

B4: 16 bp dsDNA (dsDNA)
DNA 1: TGCTACCGATCGATAC
DNA 2: GTATCGATCGGTAGCA
P150 721-860 (WHD) [3]
  binding result: binds
